In the supplement of paper PMC9112550, “Optimization of the antimicrobial peptide Bac7 by deep mutational scanning” (BMC Biology, 2022):

System: Escherichia coli TOP10
Test: shrunken log2 fold change of peptide-encoding DNA abundance (4.5 h post-induction vs induction); higher = less antimicrobial activity (less host growth inhibition)
Details: time post-induction: 4.5 h; library: site-saturation at positions 5, 18, 19, 20
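Also: peptides expressed intracellularly from a pBAD plasmid library in pooled LB shake-flask culture, induced with 0.3% L-arabinose, DNA abundance read by NGS, three biological replicates, DESeq2 with apeglm shrinkage.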

Sequence	shrunken log2 fold change
RRIRLRPPRLPRPRPRPQKYPRP	-0.442
RRIRTRPPRLPRPRPRPGDEPRP	0.195
RRIRFRPPRLPRPRPRPEYFPRP	0.186
RRIRMRPPRLPRPRPRPVAWPRP	0.213
RRIRERPPRLPRPRPRPRWTPRP	0.0925
RRIRQRPPRLPRPRPRPYSPPRP	-0.13
RRIRTRPPRLPRPRPRPQMRPRP	0.472
RRIRARPPRLPRPRPRPKIPPRP	0.174
RRIRNRPPRLPRPRPRPLNRPRP	-0.327
RRIRERPPRLPRPRPRPVLHPRP	-0.0594
RRIRGRPPRLPRPRPRPTCWPRP	0.764
RRIRGRPPRLPRPRPRPYCHPRP	0.054
RRIRGRPPRLPRPRPRPCYTPRP	0.498
RRIRERPPRLPRPRPRPVHNPRP	-1.53
RRIRHRPPRLPRPRPRPEDMPRP	-0.208
RRIRLRPPRLPRPRPRPYCDPRP	-0.328
RRIRKRPPRLPRPRPRPFWCPRP	-0.0466
RRIRPRPPRLPRPRPRPAQNPRP	-0.105
RRIRSRPPRLPRPRPRPDPAPRP	0.45
RRIRPRPPRLPRPRPRPAVDPRP	0.249
RRIRCRPPRLPRPRPRPDHHPRP	-0.246
RRIRYRPPRLPRPRPRPSEVPRP	-0.177
RRIRNRPPRLPRPRPRPKCWPRP	0.173

Sequence	shrunken log2 fold change
RRIRYRPPRLPRPRPRPMFVPRP	-0.228
RRIRWRPPRLPRPRPRPQNWPRP	0.215
RRIRSRPPRLPRPRPRPQFAPRP	0.105
RRIRVRPPRLPRPRPRPEWFPRP	-0.154
RRIRERPPRLPRPRPRPFAKPRP	-0.386
RRIRSRPPRLPRPRPRPRKTPRP	0.0973
RRIRVRPPRLPRPRPRPICNPRP	-0.183
RRIRHRPPRLPRPRPRPGMKPRP	-0.113
RRIRPRPPRLPRPRPRPGKEPRP	0.0995
RRIRIRPPRLPRPRPRPWGMPRP	0.0727
RRIRCRPPRLPRPRPRPFPDPRP	-0.415
RRIRIRPPRLPRPRPRPYHYPRP	-0.415
RRIRNRPPRLPRPRPRPYNPPRP	-0.299
RRIRWRPPRLPRPRPRPFNGPRP	-0.0132
RRIRKRPPRLPRPRPRPPMMPRP	0.587
RRIRCRPPRLPRPRPRPAISPRP	0.0324
RRIRERPPRLPRPRPRPTLWPRP	0.364
RRIRPRPPRLPRPRPRPCWWPRP	0.742
RRIRHRPPRLPRPRPRPNQFPRP	-0.789
RRIRRRPPRLPRPRPRPFDVPRP	-0.0126
RRIRPRPPRLPRPRPRPVIRPRP	-0.074
RRIRYRPPRLPRPRPRPIITPRP	-0.667
RRIRPRPPRLPRPRPRPIDRPRP	-0.00145

Sequence	shrunken log2 fold change
RRIRVRPPRLPRPRPRPYVWPRP	-0.567
RRIRMRPPRLPRPRPRPREIPRP	1.35
RRIRRRPPRLPRPRPRPYQRPRP	-0.0429
RRIRERPPRLPRPRPRPGIEPRP	0.00615
RRIRIRPPRLPRPRPRPVAGPRP	-0.0858
RRIRPRPPRLPRPRPRPPAMPRP	0.447
RRIRFRPPRLPRPRPRPQFCPRP	-0.0625
RRIRMRPPRLPRPRPRPDMVPRP	1.9
RRIRFRPPRLPRPRPRPKGTPRP	-0.429
RRIRWRPPRLPRPRPRPCFVPRP	-0.144
RRIRIRPPRLPRPRPRPCHSPRP	0.00888
RRIRQRPPRLPRPRPRPDALPRP	-0.0392
RRIRNRPPRLPRPRPRPWNAPRP	-0.255
RRIRNRPPRLPRPRPRPGTLPRP	-0.0615
RRIRNRPPRLPRPRPRPKLHPRP	-0.0882
RRIRERPPRLPRPRPRPCQHPRP	-0.0915
RRIRIRPPRLPRPRPRPVEIPRP	-0.0212
RRIRPRPPRLPRPRPRPSFWPRP	0.129
RRIRFRPPRLPRPRPRPHNYPRP	-0.633
RRIRMRPPRLPRPRPRPAQDPRP	0.376
RRIRARPPRLPRPRPRPWLDPRP	0.0658
RRIRCRPPRLPRPRPRPFVIPRP	-0.526
RRIRNRPPRLPRPRPRPNMVPRP	-0.385

Sequence	shrunken log2 fold change
RRIRMRPPRLPRPRPRPMLCPRP	0.049
RRIRIRPPRLPRPRPRPQWIPRP	3.04
RRIRGRPPRLPRPRPRPWFCPRP	-0.444
RRIRDRPPRLPRPRPRPMSEPRP	-0.00582
RRIRTRPPRLPRPRPRPCGFPRP	0.268
RRIRQRPPRLPRPRPRPENIPRP	-0.0809
RRIRDRPPRLPRPRPRPCITPRP	-0.128
RRIRLRPPRLPRPRPRPGMKPRP	-0.0618
RRIRGRPPRLPRPRPRPEHRPRP	0.102
RRIRTRPPRLPRPRPRPGYTPRP	0.0635
RRIRKRPPRLPRPRPRPEMVPRP	0.422
RRIRWRPPRLPRPRPRPVELPRP	-0.00876
RRIRDRPPRLPRPRPRPYAVPRP	-0.165
RRIRCRPPRLPRPRPRPYYSPRP	-0.437
RRIRTRPPRLPRPRPRPDMGPRP	-0.0558
RRIRSRPPRLPRPRPRPWPLPRP	-0.293
RRIRDRPPRLPRPRPRPAYSPRP	0.0295
RRIRCRPPRLPRPRPRPLLCPRP	-0.163
RRIRHRPPRLPRPRPRPRIRPRP	-0.00948
RRIRCRPPRLPRPRPRPNQVPRP	0.017
RRIRQRPPRLPRPRPRPNLEPRP	-0.136
RRIRKRPPRLPRPRPRPHWKPRP	-0.00804
